According to paper PMC2950906 (Nature structural & molecular biology, 2010):

Legend:
[1] = target: EcGspD fragment 1-237 (peri-GspD), N0-N1-N2 subdomains of the secretin from enterotoxigenic E. coli (enterotoxigenic E. coli); assay: SPR
cryo-EM structure = target: the molecule itself; assay: cryo-EM structure

Molecule | Kd [1] [µM] | stoichiometry N (cryo-EM structure)
B-pentamer of heat-labile enterotoxin (LTB5) (from UniProt P32890 22-124) (complex) | 15.5 | 
V. cholerae GspD secretin (VcGspD), full-length recombinant channel (natural protein) NEFSASFKGTDIQEFINIVGRNLEKTIIVDPSVRGKVDVRSFDTLNEEQYYSFFLSVLEVYGFAVVEMDNGVLKVIKSKDAKTSAIPVLSGEERANGDEVITQVVAVKNVSVRELSPLLRQLIDNAGAGNVVHYDPANIILITGRAAVVNRLAEIIRRVDQAGDKEIEVVELNNASAAEMVRIVEALNKTTDAQNTPEFLKPKFVADERTNSILISGDPKVRERLKRLIKQLDVEMAAKGNNRVVYLKYAKAEDLVEVLKGVSENLQAEKGTGQPTTSKRNEVMIAAHADTNSLVLTAPQDIMNAMLEVIGQLDIRRAQVLIEALIVEMAEGDGINLGVQWGSLESGSVIQYGNTGASIGNVMIGLEEAKDTTQTKAVYDTNNNFLRNETTTTKGDYTKLASALSSIQGAAVSIAMGDWTALINAVSNDSSSNILSSPSITVMDNGEASFIVGEEVPVITGSTAGSNNDNPFQTVDRKEVGIKLKVVPQINEGNSVQLNIEQEVSNVLGANGAVDVRFAKRQLNTSVMVQDGQMLVLGGLIDERALESESKVPLLGDIPLLGQLFRSTSSQVEKKNLMVFIKPTIIRDGVTADGITQRKYNYIRAEQLFRAEKGLRLLDDASVPVLPKFGDDRRHSPEIQAFIEQMEAKQ |  | 12
